Experimental data: US11110182B2, “Multifunctional RNA nanoparticles and methods for treating cancer and therapeutic resistant cancer” (University of Cincinnati, priority 2016, dated 2021)

Key:
[1] = Stability analyses (RNase A, 10% FBS DMEM, 8 M urea) by native PAGE; type: in vitro ADME; conditions: 37° C.
Text: FIG. 1A) The scheme of the pRNA-HER2apt-siMED1 (p-HER2-siMED1) (SEQ ID NO: 15) structure. FIG. 1B) The p1 and p2 strands of pRNA-HER2apt-siMED1_were transcribed using an in vitro RNA transcription system and separated in 8% denatured PAGE gel. FIG. 1C) pRNA-HER2apt-siMED1 nanoparticles were generated by annealing equal molar of strands p1 and p2, and subjected to 8% native PAGE gel electrophoresis. FIG. 1D) DLS assay of hydrodynamic size of pRNA-HER2apt-siMED1 nanoparticle. FIG. 1E) The Tm value of pRNA-HER2apt-siMED1 nanoparticle determined by TGGE assay. FIG. 1F) The atomic force microscopy (AFM) images of pRNA-HER2apt-siMED1 nanoparticles. FIG. 1G) The stability of control unmodified and 2′-F modified pRNA nanoparticles was examined by 8% native PAGE gel electrophoresis after RNase A, 10% FBS-supplemented DMEM medium and 8M urea treatments for the indicated time at 37° C.
Cell culture. Human breast cancer luciferase-overexpressing BT474 and MDA-MB-231 cells were maintained in DMEM medium (Hyclone, Thermo Scientific) supplemented with 10% fetal bovine serum (FBS, Sigma) and 1% penicillin/streptomycin (Corning) at 37° C. in a humidified atmosphere with 5% CO2.^53 • Generation of pRNA nanoparticles. The two strands of pRNA were synthesized with the DNA templates, which were amplified with overlapping primers (Sigma) by PCR methods, using a T7 promoter-controlled in vitro RNA transcription system as previously described^33 (Table 1). All the CTP and UTP used for synthesis of the pRNA nanoparticles were 2′-fluoro modified, except the control unmodified pRNA nanoparticles used in the stability assays. […] The hydrodynamic diameter and Tm value of pRNA nanoparticles were determined using dynamic light scattering and TGGE assay, respectively, as previously described.^54 The AFM imaging of the pRNA nanoparticles was performed at the University of Nebraska Medical Center imaging facility as previously reported.^55 Briefly, the pRNA nanoparticles (5 μL) were deposited on APS modified mica ^56 for a total of 2 min of incubation time. […]

MCF-7/HER2 cells = experiment: MTT assay, MCF-7/HER2 cells; type: cell-based, human; conditions: MCF-7/HER2, 10 μg/mL pRNA and 1 μM tamoxifen, 48 h
Method: FIGS. 10A-10D. Evidence that pRNA-HER2apt-siMED1 nanoparticles silenced MED1 expression and sensitized two other HER2+ breast cancer cells to tamoxifen treatment. FIG. 10A) Two HER2-overexpressing breast cancer cell lines MCF7/TAM and FIG. 10B) MCF7/HER2, were treated with 10 μg/mL pRNA-HER2apt-siMED1 nanoparticles or scramble control for 48 h, and then MED1 protein level was determined using western blots. FIG. 10C) MCF7/TAM and FIG. 10D) MCF7/HER2 cells were treated with 10 μg/mL pRNA nanoparticles and/or 1 μM tamoxifen (TAM) as indicated for 48 h, and then cell growth was determined using an MTT assay.
Since MED1 has recently been reported to play key roles in tamoxifen resistance of human breast cancer, the combinational effects of pRNA-HER2apt-siMED1 nanoparticles with tamoxifen on the growth and metastatic potential of BT474 cells was examined. […] The combinational effect of pRNA-HER2apt-siMED1 nanoparticles with tamoxifen treatment on two other HER2-overexpressing breast cancer cells MCF-7/HER2 and MCF-7/TAM were also confirmed (FIGS. 10C-D).

B1: pRNA-HER2apt-siMED1: 3-WJ pRNA nanoparticle bearing a HER2-targeting RNA aptamer and two different MED1 siRNAs; strands p1 SEQ ID NO: 3, p2 SEQ ID NO: 4 (nucleic acid)
chain 1: GGACAGUGAAAGUGAGUCAAAGGAUCAAUCAUGGCCAAAGAUGUUACUUUGAGAGCCUU
chain 2: GGCUCUCAAAGUAACAUCUAAGGCCAUGUGUAUGUGGGGGGAGGACGAUGCGGUCUGCUGUGCUUGAUAUGCCCCAGACGACUCGCCCCCCACAUACUUUGUUGAUCCAAUGACUCACUUUCACUGUCCUU
modifications: 2'-F modification; third strand may lack entry; pRNA-HER2apt-siMED1, p1; pRNA-HER2apt-siMED1, p2
resistance to RNase A treatment ([1]; 10 μg/mL RNase A): resistant
structure in 8M urea ([1]; 8M urea): maintained their structure
stability in 10% FBS-supplemented DMEM medium [1]: highly stable
combinational effect with tamoxifen on cell growth (MCF-7/HER2 cells): confirmed
